Reference: paper PMC2749211

Molecular target: SMU.440, hypothetical protein from Streptococcus mutans (Streptococcus mutans)
Assay: SEC; gel filtration on HiLoad Superdex 75, 20 mM Tris-HCl pH 7.5, 150 mM NaCl

“SMU.440, hypothetical protein from Streptococcus mutans (natural protein)” was tested, and the stoichiometry N was 2.
